According to article doi:10.1101/2024.09.06.611628 (bioRxiv, 2024):

Molecular target: T1, CATCH(-) peptide
T1 peptide: Ac-EQEFEFEFEQE-NH2
Assay: gelation on mixing

- binding result: binds
Binder: Ac-QQKFKFKFKQQ-NH2 [CATCH(+) peptide]
